This is an account of results in the Human Domainome abundance scans (Beltran et al. 2025).

± gives the uncertainty stated by the source.

B1: Far upstream element-binding protein 1, residues 184 to 257; numbered along this chain, Q96AE4 (parent)
chain: GNAVQEIMIPASKAGLVIGKGGETIKQLQERAGVKMVMIQDGPQNTGADKPLRITGDPYKVQQAKEMVLELIRD

The variants in this data set derive from B1. As to the kind of experiment: abundance fitness (aPCA) (normalised: wild type 0, dead -1); higher = more abundant; growth selection in yeast, the domain comes from the species named. The settings on record: Homo sapiens.
Consider GNAVQEIMIPASKAGLVIGKGGETIKQLQERCGVKMVMIQDGPQNTGADKPLRITGDPYKVQQAKEMVLELIRD, for which the abundance fitness amounted to 0.006 ± 0.043.
With GNAVQEIMIPASKAGLVIGKGGETIKQLYERAGVKMVMIQDGPQNTGADKPLRITGDPYKVQQAKEMVLELIRD the figure was -0.67 ± 0.072; with GNAVQEIMIPASKAGLVIGKGGETIKQLIERAGVKMVMIQDGPQNTGADKPLRITGDPYKVQQAKEMVLELIRD, -0.342 ± 0.06; with GNAVQEIMIPASKAGLVIGKGGETIKQLTERAGVKMVMIQDGPQNTGADKPLRITGDPYKVQQAKEMVLELIRD, -0.247 ± 0.038.
In the case of GNAVQEIMIPASKAGLVIGKGGETIKQLGERAGVKMVMIQDGPQNTGADKPLRITGDPYKVQQAKEMVLELIRD, the abundance fitness was -0.142 ± 0.029.
Regarding GNAVQEIMIPASKAGLVIGKGGETIKQLHERAGVKMVMIQDGPQNTGADKPLRITGDPYKVQQAKEMVLELIRD, the abundance fitness is -0.557 ± 0.062.
For GNAVQEIMIPASKAGLVIGKGGETIKQLVERAGVKMVMIQDGPQNTGADKPLRITGDPYKVQQAKEMVLELIRD, the abundance fitness was -0.351 ± 0.037.
In the case of GNAVQEIMIPASKAGLVIGKGGETIKQLKERAGVKMVMIQDGPQNTGADKPLRITGDPYKVQQAKEMVLELIRD, the abundance fitness is -0.189 ± 0.04.
With GNAVQEIMIPASKAGLVIGKGGETIKQLSERAGVKMVMIQDGPQNTGADKPLRITGDPYKVQQAKEMVLELIRD the figure was -0.029 ± 0.031; with GNAVQEIMIPASKAGLVIGKGGETIKQLDERAGVKMVMIQDGPQNTGADKPLRITGDPYKVQQAKEMVLELIRD, -0.602 ± 0.06.
With GNAVQEIMIPASKAGLVIGKGGETIKQLEERAGVKMVMIQDGPQNTGADKPLRITGDPYKVQQAKEMVLELIRD the figure was -0.026 ± 0.034; with GNAVQEIMIPASKAGLVIGKGGETIKQLLERAGVKMVMIQDGPQNTGADKPLRITGDPYKVQQAKEMVLELIRD, -0.45 ± 0.033.
With GNAVQEIMIPASKAGLVIGKGGETIKQLAERAGVKMVMIQDGPQNTGADKPLRITGDPYKVQQAKEMVLELIRD the figure was -0.018 ± 0.032; with GNAVQEIMIPASKAGLVIGKGGETIKQLCERAGVKMVMIQDGPQNTGADKPLRITGDPYKVQQAKEMVLELIRD, -0.2 ± 0.045.
Turning to GNAVQEIMIPASKAGLVIGKGGETIKQLRERAGVKMVMIQDGPQNTGADKPLRITGDPYKVQQAKEMVLELIRD, the abundance fitness is -0.137 ± 0.027.
Consider GNAVQEIMIPASKAGLVIGKGGETIKQLMERAGVKMVMIQDGPQNTGADKPLRITGDPYKVQQAKEMVLELIRD, for which the abundance fitness is -0.044 ± 0.042.
As for GNAVQEIMIPASKAGLVIGKGGETIKQLPERAGVKMVMIQDGPQNTGADKPLRITGDPYKVQQAKEMVLELIRD, the abundance fitness was -0.748 ± 0.044.
As for GNAVQEIMIPASKAGLVIGKGGETIKQLWERAGVKMVMIQDGPQNTGADKPLRITGDPYKVQQAKEMVLELIRD, the abundance fitness was -0.345 ± 0.036.
With GNAVQEIMIPASKAGLVIGKGGETIKSLQERAGVKMVMIQDGPQNTGADKPLRITGDPYKVQQAKEMVLELIRD the figure was -0.021 ± 0.032.
With GNAVQEIMIPASKAGLVIGKGGETIKTLQERAGVKMVMIQDGPQNTGADKPLRITGDPYKVQQAKEMVLELIRD the figure was -0.081 ± 0.036; with GNAVQEIMIPASKAGLVIGKGGETIKVLQERAGVKMVMIQDGPQNTGADKPLRITGDPYKVQQAKEMVLELIRD, -0.095 ± 0.032; with GNAVQEIMIPASKAGLVIGKGGETIKYLQERAGVKMVMIQDGPQNTGADKPLRITGDPYKVQQAKEMVLELIRD, -0.129 ± 0.049.
With GNAVQEIMIPASKAGLVIGKGGETIKWLQERAGVKMVMIQDGPQNTGADKPLRITGDPYKVQQAKEMVLELIRD the figure was -0.05 ± 0.035; with GNAVQEIMIPASKAGLVIGKGGETIKQLQQRAGVKMVMIQDGPQNTGADKPLRITGDPYKVQQAKEMVLELIRD, -0.035 ± 0.04.
For the variant GNAVQEIMIPASKAGLVIGKGGETIKQLQTRAGVKMVMIQDGPQNTGADKPLRITGDPYKVQQAKEMVLELIRD, the abundance fitness was -0.071 ± 0.038.
With GNAVQEIMIPASKAGLVIGKGGETIKQLQIRAGVKMVMIQDGPQNTGADKPLRITGDPYKVQQAKEMVLELIRD the figure was -0.03 ± 0.054.
With GNAVQEIMIPASKAGLVIGKGGETIKQLQKRAGVKMVMIQDGPQNTGADKPLRITGDPYKVQQAKEMVLELIRD the figure was -0.01 ± 0.042; with GNAVQEIMIPASKAGLVIGKGGETIKQLQGRAGVKMVMIQDGPQNTGADKPLRITGDPYKVQQAKEMVLELIRD, -0.122 ± 0.028; with GNAVQEIMIPASKAGLVIGKGGETIKQLQDRAGVKMVMIQDGPQNTGADKPLRITGDPYKVQQAKEMVLELIRD, -0.024 ± 0.046.
Take GNAVQEIMIPASKAGLVIGKGGETIKQLQLRAGVKMVMIQDGPQNTGADKPLRITGDPYKVQQAKEMVLELIRD: the abundance fitness is -0.026 ± 0.031.
On to GNAVQEIMIPASKAGLVIGKGGETIKQLQVRAGVKMVMIQDGPQNTGADKPLRITGDPYKVQQAKEMVLELIRD, for which the abundance fitness was -0.029 ± 0.031.
With GNAVQEIMIPASKAGLVIGKGGETIKQLQRRAGVKMVMIQDGPQNTGADKPLRITGDPYKVQQAKEMVLELIRD the figure was 0.01 ± 0.027; with GNAVQEIMIPASKAGLVIGKGGETIKQLQSRAGVKMVMIQDGPQNTGADKPLRITGDPYKVQQAKEMVLELIRD, -0.007 ± 0.032; with GNAVQEIMIPASKAGLVIGKGGETIKQLQARAGVKMVMIQDGPQNTGADKPLRITGDPYKVQQAKEMVLELIRD, -0.039 ± 0.035.
With GNAVQEIMIPASKAGLVIGKGGETIKQLQYRAGVKMVMIQDGPQNTGADKPLRITGDPYKVQQAKEMVLELIRD the figure was -0.114 ± 0.06.
For GNAVQEIMIPASKAGLVIGKGGETIKQLQMRAGVKMVMIQDGPQNTGADKPLRITGDPYKVQQAKEMVLELIRD, the abundance fitness was 0.025 ± 0.041.
For the variant GNAVQEIMIPASKAGLVIGKGGETIKQLQHRAGVKMVMIQDGPQNTGADKPLRITGDPYKVQQAKEMVLELIRD, the abundance fitness is -0.016 ± 0.048.
